Consider three molecules from patent publication US20240382559A1, “PHARMACEUTICAL COMPOSITION COMPRISING KAI1 POLYPEPTIDE FOR INHIBITION OF HEPATIC FIBROSIS AND USE THEREOF” (PUSAN NATIONAL UNIVERSITY INDUSTRY-UNIVERSITY COOPERATION …, priority 2021, published 2024).

For test [1], the system named is mouse liver cell line (AML12). Put plainly: qPCR of fibrosis-related genes in TGF-β1-treated liver cell line, rhKAI1 / pepKAI1 WT / pepKAI1 Mut. The class given is cell-based. As to conditions: 200 or 500 ng/mL for 2 hours, then TGF-β1 2 ng/ml 24 hours. On the procedure: The effect of wild type KAI1 peptide (pepKAI1 WT) or mutant KAI1 peptide (pepKAI1 Mut) on fibrosis induced by treatment with TGF-β1 was confirmed in mouse liver cell line (AML12).
Specifically, the AML 12 cells were treated with recombinant human KAI1 protein (rhKAI1), wild type KAI1 peptide (pepKAI1 WT), and mutant KAI1 peptide (pepKAI1 Mut) at a concentration of 200 ng/mL or 500 ng/mL, respectively, and reacted for 2 hours. Thereafter, the cells were treated with TGF-β1 at a concentration of 2 ng/ml and cultured for an additional 24 hours, and then the cells were collected. RNA from the collected cells was extracted with Trizol, cDNA was synthesized, and then changes in expression of fibrosis-related genes (α-SMA, Col1a1, TIMP1, Vimentin, TGF-β, and fibronectin) were confirmed by qPCR analysis.
(Quantitative PCR measures a nucleic acid by following its amplification.)

Test [2] has as its system mouse liver cell line (AML12). In words: Immunoblotting of ZO-1 (EMT) in TGF-β1-treated liver cell line. As to conditions: 500 ng/ml for 2 hours, then TGF-β1 24 or 48 hours. The class given is cell-based. As for the experimental part: The epithelial-mesenchymal transition (EMT) process has been proposed as one of the mechanisms of fibrosis. Therefore, the effect of KAI1 protein on the EMT process induced by TGF-1 in mouse liver cell line (AML12) was confirmed.
Specifically, the AML12 cells were treated with of KAI1 protein at a concentration of 500 ng/ml and reacted for 2 hours. Thereafter, the cells were treated with TGF-β1 and cultured for an additional 24 hours or 48 hours, and then the cells were collected. The collected cells were lysed in RIPA buffer containing protease inhibitors to extract proteins, and immunoblotting was performed by loading an equal amount of proteins. The protein expression level of ZO-1 was confirmed using an antibody of ZO-1 (anti-ZO antibody, 13663, Abcam), an epithelial biomarker during the EMT process. At this time, anti-tubulin antibody (T5168, Sigma-Aldrich) was used as an internal control, and HRP-conjugated anti-rabbit antibody (ADI-SAB-300-J, Enzo Life Sciences) was used as a secondary antibody.

For test [3], the system named is human hepatic stellate cell line (LX2). In words: qPCR of senescence-related genes in hepatic stellate cell line. The class given is cell-based. As to conditions: 200 or 500 ng/mL, 24 or 48 hours, vs. control group. As for the experimental part:
(§1) Specifically, the LX2 cell line was treated with recombinant human KAI1 protein (rhKAI1) at a concentration of 200 ng/mL or 500 ng/mL, respectively. Thereafter, the cells were cultured for 24 hours or 48 hours and collected to confirm cell proliferation and fibrosis-related gene expression in the cells. The cell proliferation was measured using MTS assay. RNA from the collected cells was extracted with Trizol, cDNA was synthesized, and then changes in expression of fibrosis-related genes (α-SMA, Col1a1, Vimentin, TGF-β, and GFAP) were confirmed by qPCR analysis.
It is known that hepatic stellate cells can inhibit hepatic fibrosis by inducing senescence in the liver. Therefore, the expression of senescence-related genes (HGMA1, p16, p21 and p53, SIRT1) was confirmed in human hepatic stellate cell line (LX2) treated with KAI1 protein in the same manner as in Example 4.1.

Test [4] has the same test system. In words: Immunoblotting of senescence-related proteins in hepatic stellate cell line. The class given is cell-based. As to conditions: 200 or 500 ng/mL, 24 or 48 hours, vs. untreated group. On the procedure:
as §1
The expression of senescence-related proteins was confirmed in human hepatic stellate cell line (LX2) treated with KAI1 protein in the same manner as in Example 4.1. At this time, anti-SIRT1 antibody (ab32441, Abcam), anti-p16 antibody (10883-1-ap, Protein tech.), and anti-GAPDH antibody (MCA4739, AbD Serptec) were used as primary antibodies, and HRP-conjugated anti-rabbit antibody (ADI-SAB-300-J, Enzo Life Sciences) and anti-mouse antibody (ADI-SAB-100-J) were used as secondary antibodies.

Test [5] shares this test system. Put plainly: qPCR of fibrosis-related genes in hepatic stellate cell line. The class given is cell-based. As to conditions: rhKAI1 200 or 500 ng/mL, 24 or 48 hours. On the procedure: (§2) It is known that fibrosis occurs due to excessive proliferation and activation of hepatic stellate cells. Therefore, changes in fibrosis-related gene expression by treatment with KAI1 protein were confirmed in human hepatic stellate cell line (LX2).
as §1

The test system is the same in test [6]. Put plainly: Immunoblotting of fibrosis-related proteins in hepatic stellate cell line. The class given is cell-based. As to conditions: 200 or 500 ng/mL, 24 or 48 hours, vs. untreated group. As for the experimental part:
as §1
The expression of fibrosis-related proteins was confirmed in human hepatic stellate cell line (LX2) treated with KAI1 protein in the same manner as in Example 4.1. At this time, anti-Vimentin antibody (sc-5565, Santa Cruz Biotech.), anti-Col1α1 antibody (NBP1-30054, Novus Biological), anti-α-SMA antibody (A5228, Sigma-Aldrich), anti-GFAP antibody (Z0334, Dako), and anti-GAPDH antibody (MCA4739, AbD Serptec) were used as primary antibodies, and HRP-conjugated anti-rabbit antibody (ADI-SAB-300-J, Enzo Life Sciences) and anti-mouse antibody (ADI-SAB-100-J) were used as secondary antibodies.

Test [7] deals with acute hepatic fibrosis model mice. Put plainly: H&E staining of liver tissue in CCl4 acute hepatic fibrosis animal model. The class given is in vivo. As to conditions: C57BL/6 male mice, CCl4 i.p. twice a week; 4 μg KAI1 protein i.p. per mouse on day 8, liver extracted day 11. On the procedure: (§3) Specifically, 7-week-old C57BL/6 male mice was prepared, and CCl4 was diluted in corn oil at a concentration of 1 mL/kg. In order to induce acute liver injury, the mice were injected intraperitoneally with the diluted CCl4 twice a week. As a control group, the mice were intraperitoneally injected with the same amount of the corn oil.
(§4) As a KAI1 protein, a polypeptide (Human CD82/KAI-1 Protein (His Tag), Sino Biological Inc.) comprising a KAI1 fragment comprising a polypeptide (extracellular domain, SEQ ID NO: 4) consisting of the 111st to 228th amino acid sequence from the N terminus in a polypeptide consisting of the amino acid sequence of SEQ ID NO: 1 was used. On the 8th day after the start of the experiment, 4 μg of KAI1 protein was injected intraperitoneally per mouse, and on the 11th day, the mice were sacrificed and liver tissue was extracted.
The liver tissue extracted in Example 2.1. was fixed in 10% (v/v) formalin solution. Thereafter, the liver tissue was embedded in paraffin and sectioned to a thickness of 4 μm to prepare tissue sections. After deparaffinization and superhydration, H&E (hematoxylin & eosin) staining was performed and observed under an optical microscope.

Test [8] has as its system human hepatic stellate cell line (LX2). Put plainly: Cell proliferation by MTS assay in hepatic stellate cell line. The class given is cell-based. As to conditions: rhKAI1 200 or 500 ng/mL, 24 or 48 hours. On the procedure: as §2, §1
On the technique in general: Tetrazolium dyes change colour on reduction, which living cells bring about.

The test system of test [9] is acute hepatic fibrosis model mice. In words: qPCR of fibrosis-related genes in liver tissue of CCl4 acute hepatic fibrosis animal model. The class given is in vivo, mouse. As to conditions: 4 μg KAI1 protein i.p. day 8, liver day 11, vs. CCl4. As for the experimental part:
as §3, §4
RNA was obtained from the liver tissue extracted in Example 2.1. The RNA from the liver tissue was obtained using Favorgen® Trizol according to the manufacturer's instructions. The RNA was reverse transcribed into cDNA using a cDNA synthesis kit (Bioneer corp.). Thereafter, real-time PCR (qPCR) was performed to confirm changes in the expression levels of fibrosis-related genes Col1a1 (collagen type 1), fibronectin, and TGFβ1 (transforming growth factor-β1).

For the next test, the system named is liver cell line (AML12). In words: qPCR of fibrosis-related genes in TGF-β1-treated liver cell line, KAI1 protein. The class given is cell-based, mouse. As to conditions: 200 or 500 ng/mL for 2 hours, then TGF-β1 2 ng/mL 24 hours. As for the experimental part:
In order to confirm the activity of KAI1protein to inhibit hepatic fibrosis at the cellular level, the liver cell line (AML12), which had hepatic fibrosis induced by treatment with TGF-β1, was treated with KAI1 protein to confirm changes in the expression of fibrosis-related genes.
Specifically, the AML 12 cells were cultured in DMEM/F12 medium containing 10% (v/v) fetal bovine serum (FBS), 1% (w/v) penicillin-streptomycin, 10 μg/mL insulin, 5.5 μg/mL transferrin, 5 ng/mL selenium, and 40 ng/ml dexamethasone. The AML12 cells were treated with KAI1 protein at a concentration of 200 ng/ml or 500 ng/mL, respectively, and reacted for 2 hours. Thereafter, the cells were treated with TGF-β1, a fibrosis-inducing cytokine, at a concentration of 2 ng/mL and cultured for an additional 24 hours, and then the cells were collected. RNA from the collected cells was extracted with Trizol, cDNA was synthesized, and then changes in expression of fibrosis-related genes (α-SMA, Col1a1, TIMP1, and MMP9) were confirmed by qPCR analysis.

Consider “pepKAI1 Mut: mutant peptide with both Y*C and EED substituted with alanine, NRPEVTAPASCEVKGAAANS (SEQ ID NO: 3) (Mutant KAI1 polypeptide)”, for which the “expression of fibrosis-related genes (α-SMA, Col1a1, TIMP1, Vimentin, TGF-β, fibronectin) increased by TGF-β1 (qPCR)” value in test [1] was “not reduced”.

For “pepKAI1 WT: 20 amino acid functional KAI1 peptide with Y*C and EED motifs, NRPEVTYPCSCEVKGEEDNS (SEQ ID NO: 2) (Wild type KAI1 polypeptide)”, in [1], the “expression of fibrosis-related genes (α-SMA, Col1a1, TIMP1, Vimentin, TGF-β, fibronectin) increased by TGF-β1 (qPCR)” value is on record as “reduced”. Also, the “fibrosis-related gene expression compared to the group treated with rhKAI1 protein (qPCR)” value in test [1] (comparison with rhKAI1) is recorded as “further reduced”.

B1: KAI1 protein: Human CD82/KAI-1 Protein (His Tag), Sino Biological; comprises extracellular domain, amino acids 111 to 228 of SEQ ID NO: 1 (SEQ ID NO: 4) (protein)
chain: GKLKQEMGGIVTELIRDYNSSREDSLQDAWDYVQAQVKCCGWVSFYNWTDNAELMNRPEVTYPCSCEVKGEEDNSLSVRKGFCEAPGNRTQSGNHPEDWPVYQEGCMEKVQAWLQENL
modifications: His tag; Extracellular domain of recombinant human KAI1 protein
On to B1, for which, in [2], the “expression of ZO-1 protein reduced by TGF-β1 (immunoblotting)” value is “recovered”. Besides, in test [3], the “expression of SIRT1, a senescence inhibition marker (qPCR)” value is recorded as “reduced”; the “expression of senescence marker gene HGMA1 (qPCR)” value is “increased”; the “expression of senescence marker gene p16 (qPCR)” value is reported as “increased”; the “expression of senescence marker gene p21 (qPCR)” value was “increased”. Further, the “expression of senescence marker gene p53 (qPCR)” value in test [3] is on record as “increased”. Also, in test [4], the “expression of SIRT1, a senescence inhibition marker protein (immunoblotting)” value is on record as “reduced” and the “expression of p16, a senescence marker protein (immunoblotting)” value is reported as “increased”. In test [5], the “gene expression of Col1a1 (qPCR)” value was “significantly reduced”; the “gene expression of GFAP, marker gene for resting stellate cells (qPCR)” value is listed as “tendency to increase”; the “gene expression of TGF-β (qPCR)” value is given as “significantly reduced”; the “gene expression of Vimentin (qPCR)” value is reported as “significantly reduced”. The “gene expression of α-SMA (qPCR)” value in [5] was “significantly reduced”. For the same molecule, in test [6], the “protein expression of Col1α1 (immunoblotting)” value is given as “reduced”, the “protein expression of GFAP (immunoblotting)” value was “increased”, the “protein expression of Vimentin (immunoblotting)” value is given as “reduced” and the “protein expression of α-SMA (immunoblotting)” value is given as “reduced”. Further, the “degree of cell damage and inflammatory cell infiltration (H&E staining of liver tissue)” value in test [7] is given as “reduced”. For the same molecule, the “cell proliferation (MTS assay)” value in test [8] is listed as “significantly reduced”. For the same molecule, in [9], the “gene expression of Col1a1 in liver tissue (qPCR)” value is “reduced”, the “gene expression of TGF-β1 in liver tissue (qPCR)” value was “reduced” and the “gene expression of fibronectin in liver tissue (qPCR)” value is listed as “reduced”. In addition, the “expression of fibrosis-related genes (α-SMA, Col1a1, TIMP1, MMP9) increased by TGF-β1 (qPCR)” value in the test on liver cell line (AML12) was “reduced”.
